1 substance from publication PMC11161584 can be followed below.

In the assay the target is PTRAMP-CSS heterodimer (Plasmodium thrombospondin-related apical merozoite protein with small cystei (P. falciparum (3D7 clone))). The assay can be described thus: SPR. In general terms: In SPR one partner is held on a chip, and binding of the other changes the refractive index at the surface.

pKd: −log10 of the molar value.

In the case of “RH5-interacting protein (RIPR), full-length soluble recombinant protein (from UniProt O97302 20-1086) (natural protein)”, the pKd was 5.35.

Usually pKd stands for the Kd on a negative log10 scale, so that one unit is a factor of ten.
